# Values of other authors, collected in article PMC8573850.
# Values joined by “and” are separate entries in the source; they are usually repeats but may differ in a detail not shown here. Equal entries are not always repeated.
# Biological target: Neuropilin-1 (Homo sapiens) (UniProt O14786)
# Sequence of UniProt O14786 (O14786 22-856): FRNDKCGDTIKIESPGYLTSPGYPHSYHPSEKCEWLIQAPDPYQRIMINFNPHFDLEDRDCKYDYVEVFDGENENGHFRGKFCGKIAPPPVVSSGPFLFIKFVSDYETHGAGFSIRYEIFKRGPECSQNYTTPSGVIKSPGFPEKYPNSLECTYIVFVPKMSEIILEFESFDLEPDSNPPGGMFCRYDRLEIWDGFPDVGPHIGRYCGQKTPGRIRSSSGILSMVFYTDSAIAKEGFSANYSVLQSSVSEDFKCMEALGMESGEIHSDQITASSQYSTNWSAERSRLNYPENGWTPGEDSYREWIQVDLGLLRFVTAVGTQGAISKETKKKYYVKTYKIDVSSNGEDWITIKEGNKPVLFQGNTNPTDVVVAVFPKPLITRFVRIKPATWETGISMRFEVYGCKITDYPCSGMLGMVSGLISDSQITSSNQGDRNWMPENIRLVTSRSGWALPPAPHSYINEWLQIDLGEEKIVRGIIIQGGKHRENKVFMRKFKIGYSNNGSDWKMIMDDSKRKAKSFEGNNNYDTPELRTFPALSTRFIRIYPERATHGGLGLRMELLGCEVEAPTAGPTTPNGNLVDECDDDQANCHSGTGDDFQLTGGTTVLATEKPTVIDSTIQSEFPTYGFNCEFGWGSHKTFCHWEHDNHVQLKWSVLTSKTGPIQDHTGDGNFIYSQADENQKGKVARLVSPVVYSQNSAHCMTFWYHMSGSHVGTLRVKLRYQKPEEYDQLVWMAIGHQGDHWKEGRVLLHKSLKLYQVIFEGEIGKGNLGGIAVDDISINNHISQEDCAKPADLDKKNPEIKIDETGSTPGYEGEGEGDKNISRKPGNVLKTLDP
substance,measurement,value
Spike protein CendR peptide CendR (from UniProt P0DTC2),Kd,13 µM and 20 µM
